From article PMC6316570, “G-Protein Coupled Receptor Protein Synthesis on a Lipid Bilayer Using a Reconstituted Cell-Free Protein Synthesis System” (Life, 2018)
Values belong to the molecule of their own block, whether it stands above or below them.

Assays:
His-tagged CX3CR1 [1] = target: T1, His-tagged CX3CR1 (human, UniProt P49238 1-355); assay: SPR; Biacore T200; unpurified PURE-synthesized His-tagged CX3CR1-nanodisc complex captured (~1500 RU) on Penta-His antibody on CM5 chip; purified CX3CL1 injected; HBS-P (10 mM HEPES pH 7.4, 150 mM NaCl, 0.05% P20), 25 °C, 30 µL/min; single cycle kinetics; 1:1 interaction model
T1 construct: CX3CR1 (fractalkine receptor), human cDNA; Two templates are described; The pET28a plasmid has an N-terminal 6xHis tag, the linker DYDIPTT and a TEV site; The linear PCR product takes its His-tag from the reverse primer, which would be C-terminal; In the nanodisc assay the receptor sat in a lipid nanodisc (MSP scaffold, POPC/POPS/cholesterol); In the micelle assay it was in detergent; also called …
T1 sequence (looked up): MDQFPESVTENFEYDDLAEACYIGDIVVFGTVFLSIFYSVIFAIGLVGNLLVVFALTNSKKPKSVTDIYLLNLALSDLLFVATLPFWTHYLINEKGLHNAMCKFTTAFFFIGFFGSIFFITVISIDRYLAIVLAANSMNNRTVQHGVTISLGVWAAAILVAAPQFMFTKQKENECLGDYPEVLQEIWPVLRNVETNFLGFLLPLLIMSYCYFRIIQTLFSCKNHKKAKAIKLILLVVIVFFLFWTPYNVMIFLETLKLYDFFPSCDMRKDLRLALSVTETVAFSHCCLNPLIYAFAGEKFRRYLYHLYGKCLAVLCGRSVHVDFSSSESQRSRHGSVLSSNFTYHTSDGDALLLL

His-tagged CX3CR1 [2] = target: T1, His-tagged CX3CR1; assay: SPR; Biacore T200; unpurified PURE-synthesized Strep-tag II CX3CL1 captured (~1000 RU) on StrepMAB-Immo antibody on CM5 chip; purified His-tagged CX3CR1 synthesized with micelles, in detergent, injected; HBS-P, 25 °C, 30 µL/min; single cycle kinetics; 1:1 interaction model; conditions: one partner purified

- Kd (His-tagged CX3CR1 [1]): 27.8 nM
Molecule: recombinant CX3CL1 protein (from UniProt P78423 25-397) (ligand)

- Kd (His-tagged CX3CR1 [2]): 39.4 nM
B1: strep-II-tagged ligand CX3CL1 (ligand, UniProt P78423 25-100, looked up)
chain: QHHGVTKCNITCSKMTSKIPVALLIHYQQNQASCGKRAIILETRQHRLFCADPKEQWVKDAMQHLDRQAAALTRNG
notes: fractalkine (CX3CL1), amplified from pUREstrept2 plasmid; printed size 8.5 kDa; also called fractalkine; CX3CL1-tagged with Strep-tag II; source: PURE system (cell-free), not purified, immobilized directly; not shown: Strep-tag II, N-terminal, kept
